We go through seven substances from patent publication US12351610B2, “Interferon regulatory factor 5 inhibitors and uses thereof” (THE FEINSTEIN INSTITUTES FOR MEDICAL RESEARCH, priority 2019, dated 2025).

The target in assay [1] is T1, human full-length recombinant IRF5 variant 5 (isoform V5) (Homo sapiens, UniProt Q13568).
T1 construct: Full-length recombinant IRF5 protein (ab173024, Abcam) was immobilized onto a CMS series chip; purchased Abcam ab173024
T1 sequence (Q13568 1-514 isoform Q13568-2): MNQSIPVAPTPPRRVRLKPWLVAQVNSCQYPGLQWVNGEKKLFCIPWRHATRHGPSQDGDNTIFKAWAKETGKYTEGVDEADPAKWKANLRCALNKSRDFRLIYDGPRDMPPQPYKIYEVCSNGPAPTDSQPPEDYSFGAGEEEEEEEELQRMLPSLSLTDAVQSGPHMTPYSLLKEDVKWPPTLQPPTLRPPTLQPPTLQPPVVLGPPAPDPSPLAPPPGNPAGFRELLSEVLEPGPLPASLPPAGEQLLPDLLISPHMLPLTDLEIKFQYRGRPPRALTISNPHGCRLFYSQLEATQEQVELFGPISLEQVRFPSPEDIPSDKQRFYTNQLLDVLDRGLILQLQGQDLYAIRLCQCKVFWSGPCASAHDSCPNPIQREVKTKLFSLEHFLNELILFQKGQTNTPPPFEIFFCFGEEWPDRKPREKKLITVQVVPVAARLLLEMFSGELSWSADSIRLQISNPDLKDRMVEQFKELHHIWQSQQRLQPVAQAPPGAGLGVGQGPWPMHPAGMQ
Nature of the assay: Surface plasmon resonance (SPR) binding of peptides to immobilized full-length recombinant IRF5. The conditions noted are these: peptides 1 μM, IRF5 immobilized on chip, 25° C. How it is done:
Surface Plasmon Resonance (SPR) Analysis. The Biacore T200 (GE Healthcare, UK) was used for real-time binding interaction studies. Full-length recombinant IRF5 protein (ab173024, Abcam) was immobilized onto a CMS series chip (GE Healthcare) by diluting to a concentration of 20 μg/mL in 10 mM acetate buffer (pH=5.0). A 1:1 mixture of N-hyrdoxysuccinimide and N-ethyl-N-(dimethyaminopropyl)carbodiimide was used to activate 2 flow-cells of the CMS chip. […] The sample flow-cell was injected with the diluted IRF5 at a flow rate of 10 μL/min by manual injection. The IRF5 injection was stopped when the SPR reached ˜490 RU. For binding of peptides to IRF5, the analytes (peptides) were diluted to 1 μM in 1×PBS+0.05% Tween20 buffer, filtered (0.22 μm) and injected over the IRF5 immobilized chip at a flow rate of 30 μL/min for 60 s at 25° C. with a dissociation time set for 1 min. Binding experiments were conducted in 1×PBS+0.05% Tween20 as the running buffer; at least 3 independent experiments were performed.
Peptides (1 μM) were tested for their ability to directly interact with human full-length recombinant IRF5 variant 5 (isoform V5) by surface plasmon resonance (SPR) analysis. DWEYS (SEQ ID NO:23) peptide served as a non-targeted control and CPP1 (SEQ ID NO:4) as a control for the cell permeable sequence. […] A shared similarity between N5-1 (SEQ ID NO:20) and N5-2 (SEQ ID NO:17) is their relatively stronger positive charge, as compared to the others (Table 1).
Human IRF5 contains two nuclear localization signals (NLS), one in the N-terminus and one in the C-terminus (27). N5-1 (SEQ ID NO:20) corresponds to the N-terminal NLS (PRRVRLK) (SEQ ID NO:24). To test whether any NLS is capable of binding to IRF5, we generated C5-2 (SEQ ID NO:22) that corresponds to the C-terminal NLS of IRF5 (PREKKLI) (SEQ ID NO:25) and examined binding by SPR.

In assay [2] the test system is IRF5 nuclear translocation in B cells of PBMC from healthy donors. Nature of the assay: R848-induced IRF5 nuclear translocation in PBMC B cells (CD19+), imaging flow cytometry. It counts as cell-based, human. The conditions noted are these: 10 μM peptide pre-incubation 1 h, then 500 ng/mL R848 for 2 h. The method, then:
Imaging Flow Cytometry. Imaging flow was performed as previously described on the Amnis Imagestream (19). Briefly, PBMCs from healthy donors were isolated and treated with inhibitor for 1 h, subsequently stimulated with R848 (500 ng/mL) or 2% SLE serum for 2 h, followed by staining for CD19 and CD14. PBMC were then fixed overnight in 1% paraformaldehyde and then permeabilized (19). Permeabilized cells were blocked in 5% BSA solution and stained for intracellular IRF5 (Abcam Catalog #: ab193245) or phospho(pSer462)IRF5 and FITC-conjugated secondary antibody (Abcam Catalog #: ab6896). Prior to acquisition, DRAQS dye was added at a 1:50 dilution. PBMC from SLE patients were only surface-stained and permeabilzed for intracellular IRF5 and DRAQS staining. Murine PBMC were stained similarly for intracellular IRF5 (Abcam Catolog #: 181553) (58) and APC-conjugated secondary antibody (BioLegend). Images were acquired on the ImageStream using the 40× objective. Nuclear translocation was quantified in the Amnis IDEAS software suite. Briefly, cells were first filtered through the brightfield area vs. brightfield aspect ratio gate to exclude non-viable and doublet events. Following which a similar gate of the DRAQS nuclear channel was used. […] Finally, IRF5 nuclear translocation was determined through use of the similarity score feature contrasting IRF5 staining with DRAQS staining. […]

The subject of assay [3] is IRF5 nuclear translocation in monocytes (Mo) of PBMC from healthy donors. Nature of the assay: R848-induced IRF5 nuclear translocation in PBMC monocytes (CD14+), imaging flow cytometry. The assay is classed as cell-based, human. The conditions noted are these: 10 μM peptide pre-incubation 1 h, then 500 ng/mL R848 for 2 h. The method, then: Imaging Flow Cytometry. Imaging flow was performed as previously described on the Amnis Imagestream (19). Briefly, PBMCs from healthy donors were isolated and treated with inhibitor for 1 h, subsequently stimulated with R848 (500 ng/mL) or 2% SLE serum for 2 h, followed by staining for CD19 and CD14. PBMC were then fixed overnight in 1% paraformaldehyde and then permeabilized (19). Permeabilized cells were blocked in 5% BSA solution and stained for intracellular IRF5 (Abcam Catalog #: ab193245) or phospho(pSer462)IRF5 and FITC-conjugated secondary antibody (Abcam Catalog #: ab6896). Prior to acquisition, DRAQS dye was added at a 1:50 dilution. PBMC from SLE patients were only surface-stained and permeabilzed for intracellular IRF5 and DRAQS staining. Murine PBMC were stained similarly for intracellular IRF5 (Abcam Catolog #: 181553) (58) and APC-conjugated secondary antibody (BioLegend). Images were acquired on the ImageStream using the 40× objective. Nuclear translocation was quantified in the Amnis IDEAS software suite. Briefly, cells were first filtered through the brightfield area vs. brightfield aspect ratio gate to exclude non-viable and doublet events. Following which a similar gate of the DRAQS nuclear channel was used. This added an extra measure of stringency for cell viability. Images were gated on either CD14^+IRF5^+, CD19^+IRF5^+, or CD123^+BDCA2^+IRF5^+ events, followed by gating on images with a Gradient RMS of greater than 20 on the DRAQS channel. This was done to select images with a high level of clarity. Finally, IRF5 nuclear translocation was determined through use of the similarity score feature contrasting IRF5 staining with DRAQS staining. A similarity score≥2 was considered a translocation event.
Peptide mimetics inhibit TLR7-induced IRF5 nuclear translocation. We next sought to determine whether in vitro binding data would translate into IRF5 cellular inhibition. IRF5 is a key downstream mediator of TLR7-induced cytokine expression and TLR7 signaling has been implicated in SLE pathogenesis (2,44-47). We examined the ability of IRF5 peptide mimetics to inhibit IRF5 nuclear translocation following stimulation of PBMC with R848. […] For the initial screening, isolated PBMC from healthy donors were pre-incubated in the presence of mock (PBS), or 10 μM CPP1 (SEQ ID NO:4), N5-1 (SEQ ID NO:20), N5-2 (SEQ ID NO:17), N5-3 (SEQ ID NO:18) or C5-2 (SEQ ID NO:22) inhibitor for 1 h followed by stimulation with 500 ng/mL of R848 for 2 h. Cells were surface-stained with anti-CD14 (monocytes or Mo) and anti-CD19 (B cells) antibodies, then permeabilized and stained for intracellular IRF5 and DRAQ5. As expected, R848 induced significant IRF5 nuclear translocation in mock-incubated Mo (2) and B cells.
On the technique in general: A flow cytometer gives signals particle by particle.

“Also recorded” adds a separate entry of the source.

As for “DRQIKIWFQNRRMKWKKEGVDEAD (cell penetrating and targeting sequence) [Peptide N5-5]”, in assay [1], the “binding affinity for IRF5” value is given as “no affinity for IRF5”.
“DRQIKIWFQNRRMKWKK (listed as Drosophila antennapedia) [CPP1, reference compound]”: in assay [1], the “binding affinity for IRF5” value is recorded as “minimal binding affinity”. Besides, in assay [2], the “effect on R848-induced IRF5 nuclear translocation in B cells” value is on record as “no significant effect”. Moreover, the “effect on R848-induced IRF5 nuclear translocation in Mo” value (shortened to “effect … in Mo”) in assay [3] is “no significant effect”.
“DRQIKIWFQNRRMKWKKGPRDMPP (cell penetrating and targeting sequence) [Peptide N5-4]”: in assay [1], the “binding affinity for IRF5” value is on record as “N5-3 (SEQ ID NO:18)>N5-4 (SEQ ID NO:19)>CPP1 (SEQ ID NO:4)”.
On the same count and under the same terms, as for “DWEYS (listed as Homo sapiens) [peptide that served as a non-targeted control, reference compound]”, the entry is “no affinity for IRF5”.
Turning to “DRQIKIWFQNRRMKWKKPRRVRLK (cell penetrating and targeting sequence) [Peptide N5-1]”, the “binding affinity for IRF5” value in assay [1] was “strongest binding affinity for IRF5; also recorded: directly bind to the full-length inactive IRF5 monomer”. For the same substance, the “effect … in Mo” value in assay [3] was “significant reduction”.
On the same counts, the results for “DRQIKIWFQNRRMKWKKRHATRHG (cell penetrating and targeting sequence) [Peptide N5-2]” are “strongest binding affinity for IRF5; also recorded: directly bind to the full-length inactive IRF5 monomer” and “significant reduction”.
As for “DRQIKIWFQNRRMKWKKKSRDFRL (cell penetrating and targeting sequence) [Peptide N5-3]”, in assay [1], the “binding affinity for IRF5” value was “binding to a slightly lesser extent; also recorded: directly bind to the full-length inactive IRF5 monomer”. Moreover, the “effect … in Mo” value in assay [3] is on record as “significant reduction”.
